Measured values from patent US20170335317.

Assays:
ATRX full length [1] = target: ATRX full length (UniProt P46100); assay: filter
ATRX full length [2] = target: ATRX full length (UniProt P46100); assay: FP

Chain of UniProt P46100 (P46100 whole entry): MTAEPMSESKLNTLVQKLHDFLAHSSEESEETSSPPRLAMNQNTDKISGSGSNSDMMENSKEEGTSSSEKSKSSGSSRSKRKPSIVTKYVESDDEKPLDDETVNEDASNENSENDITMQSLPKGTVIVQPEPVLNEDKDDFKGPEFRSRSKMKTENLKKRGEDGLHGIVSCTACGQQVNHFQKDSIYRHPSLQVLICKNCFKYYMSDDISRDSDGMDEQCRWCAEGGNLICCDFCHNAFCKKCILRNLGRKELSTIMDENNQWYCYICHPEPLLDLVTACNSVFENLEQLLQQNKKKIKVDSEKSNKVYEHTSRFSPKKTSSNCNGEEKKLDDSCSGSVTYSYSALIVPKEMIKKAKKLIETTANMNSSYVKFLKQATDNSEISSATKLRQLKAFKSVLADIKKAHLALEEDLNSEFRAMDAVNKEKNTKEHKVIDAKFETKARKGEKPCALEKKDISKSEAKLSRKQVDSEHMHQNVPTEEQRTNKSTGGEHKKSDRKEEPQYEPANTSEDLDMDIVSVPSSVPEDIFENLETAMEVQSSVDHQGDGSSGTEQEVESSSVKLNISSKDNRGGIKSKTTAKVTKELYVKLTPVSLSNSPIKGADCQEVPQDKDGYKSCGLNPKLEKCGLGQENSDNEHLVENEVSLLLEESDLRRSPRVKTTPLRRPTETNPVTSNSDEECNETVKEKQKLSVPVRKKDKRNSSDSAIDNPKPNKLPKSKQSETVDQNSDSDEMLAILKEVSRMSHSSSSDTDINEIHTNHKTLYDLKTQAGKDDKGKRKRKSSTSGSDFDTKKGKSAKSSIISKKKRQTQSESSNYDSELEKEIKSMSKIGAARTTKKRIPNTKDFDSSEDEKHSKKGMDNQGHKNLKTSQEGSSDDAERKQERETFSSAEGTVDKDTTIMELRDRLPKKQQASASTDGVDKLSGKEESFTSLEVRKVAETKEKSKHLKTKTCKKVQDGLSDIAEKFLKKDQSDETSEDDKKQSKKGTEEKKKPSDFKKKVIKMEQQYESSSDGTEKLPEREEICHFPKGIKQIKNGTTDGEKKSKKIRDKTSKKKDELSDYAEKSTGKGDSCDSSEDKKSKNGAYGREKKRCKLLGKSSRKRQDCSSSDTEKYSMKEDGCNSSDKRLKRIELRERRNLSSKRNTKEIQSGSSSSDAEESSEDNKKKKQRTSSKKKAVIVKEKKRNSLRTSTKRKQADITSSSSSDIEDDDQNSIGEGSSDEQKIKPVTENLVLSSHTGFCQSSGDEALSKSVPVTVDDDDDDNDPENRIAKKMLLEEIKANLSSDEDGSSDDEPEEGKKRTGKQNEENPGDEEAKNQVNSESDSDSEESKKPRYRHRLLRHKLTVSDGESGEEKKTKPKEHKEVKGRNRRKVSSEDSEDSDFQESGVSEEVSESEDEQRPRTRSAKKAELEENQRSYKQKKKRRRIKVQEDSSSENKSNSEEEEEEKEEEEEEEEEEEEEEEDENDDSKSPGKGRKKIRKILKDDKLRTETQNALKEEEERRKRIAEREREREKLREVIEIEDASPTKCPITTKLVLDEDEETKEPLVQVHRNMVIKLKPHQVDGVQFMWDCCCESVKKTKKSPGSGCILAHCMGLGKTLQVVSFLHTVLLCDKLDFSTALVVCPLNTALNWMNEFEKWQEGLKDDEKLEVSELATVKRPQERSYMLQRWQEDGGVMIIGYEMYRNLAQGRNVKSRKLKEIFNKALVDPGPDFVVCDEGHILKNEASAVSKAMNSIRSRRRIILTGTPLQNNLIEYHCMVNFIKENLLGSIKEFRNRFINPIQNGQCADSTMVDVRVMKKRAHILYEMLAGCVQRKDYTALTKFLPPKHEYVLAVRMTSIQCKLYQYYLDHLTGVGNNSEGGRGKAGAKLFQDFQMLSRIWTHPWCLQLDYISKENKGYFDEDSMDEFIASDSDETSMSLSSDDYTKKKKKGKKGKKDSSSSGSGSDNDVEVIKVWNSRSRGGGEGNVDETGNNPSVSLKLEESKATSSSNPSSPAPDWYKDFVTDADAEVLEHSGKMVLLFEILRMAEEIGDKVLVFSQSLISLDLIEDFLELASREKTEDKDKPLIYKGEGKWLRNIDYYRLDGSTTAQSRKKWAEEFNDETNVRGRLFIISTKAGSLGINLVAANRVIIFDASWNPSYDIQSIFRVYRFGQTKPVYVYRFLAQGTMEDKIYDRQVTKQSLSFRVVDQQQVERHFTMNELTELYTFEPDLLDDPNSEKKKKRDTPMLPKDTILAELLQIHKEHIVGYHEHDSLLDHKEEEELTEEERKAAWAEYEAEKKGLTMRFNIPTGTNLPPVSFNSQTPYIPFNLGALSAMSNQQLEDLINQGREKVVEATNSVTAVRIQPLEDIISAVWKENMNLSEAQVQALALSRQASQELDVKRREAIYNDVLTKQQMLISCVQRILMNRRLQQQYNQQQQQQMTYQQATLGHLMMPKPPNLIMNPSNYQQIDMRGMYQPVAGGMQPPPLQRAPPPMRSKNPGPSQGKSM

Substance: Hotair dsDNA
- Kd (ATRX full length [1]; Kd>>200 nM): > 200 nM

Substance: Repeat A ssDNA
- Kd (ATRX full length [1]; could not bind well, Kd>>200 nM): > 200 nM

Substance: Xist Repeat A I-IV RNA
- Kd (ATRX full length [2]): 5.41 nM

Substance: MBP dsDNA
- Kd (ATRX full length [1]; Kd>>200 nM): > 200 nM

Substance: P4-P6 ribozyme RNA
- Kd (ATRX full length [1]; Kd>>200 nM): > 200 nM

Substance: Repeat A III-IV RNA
- Kd (ATRX full length [1]; +/-3.35, double-filter binding): 17.9 nM

Substance: Repeat A I-II RNA
- Kd (ATRX full length [1]; +/-0.89, double-filter binding): 9.96 nM

Substance: MBP mRNA first 300 nt
- Kd (ATRX full length [1]; Kd>>200 nM): > 200 nM

Substance: Repeat A dsDNA
- Kd (ATRX full length [1]; unit not printed with value, nM by context): 15.7 nM
